Here are results for two substances from patent US20050066381A1.

Series [1] addresses PP1c (PP1cα), protein phosphatase 1 catalytic subunit. The series is described as follows: PP1c pull-down from adenovirus-infected cardiomyocytes (I-1 + PKCα dn), I-1 Western blot, quantified. On the technique in general: In western blotting, separated proteins are transferred to a membrane and probed.
Series [2] has the same target. Kind of series: PP1c pull-down from adenovirus-infected cardiomyocytes (I-1 + PKCα wt), I-1 Western blot, quantified.
Series [3] concerns recombinant Ser-67-Ala inhibitor-1 isolated from E. coli.
Series [4] deals with recombinant wildtype inhibitor-1 isolated from E. coli.

PP1c (PP1cα), protein phosphatase 1 catalytic subunit, sequence (P62138 2-330): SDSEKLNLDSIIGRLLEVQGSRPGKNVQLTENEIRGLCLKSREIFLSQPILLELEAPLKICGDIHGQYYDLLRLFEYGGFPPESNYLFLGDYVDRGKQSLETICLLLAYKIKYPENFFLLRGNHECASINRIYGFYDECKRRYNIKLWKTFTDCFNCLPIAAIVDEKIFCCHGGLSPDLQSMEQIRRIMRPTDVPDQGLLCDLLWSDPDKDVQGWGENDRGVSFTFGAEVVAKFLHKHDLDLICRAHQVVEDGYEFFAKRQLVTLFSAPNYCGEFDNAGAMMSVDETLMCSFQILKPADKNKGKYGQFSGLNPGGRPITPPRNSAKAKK

“Inhibitor-1 (I-1), expressed from adenovirus in neonatal rat cardiomyocytes”: in series [1], the increase of I-1/PP1c complex formation when dominant negative PKCα is expressed was over 70 % increase. For the same substance, the reduction of I-1 interaction with PP1c when wildtype PKCα is overexpressed in series [2] was determined as 50 % reduction.
In the case of “protein kinase C isolated from rabbit heart muscle”, the “in vitro phosphorylation with 32P-ATP, relative to wildtype I-1” value in series [3] was “approximately 50% less phosphorylation by PKC compared with equal amounts of wildtype protein”. In addition, the “in vitro phosphorylation with 32P-ATP, SDS-PAGE and quantification of radioactivity” value in series [4] is “Wildtype I-1 protein was directly phosphorylated in vitro in a time-dependent manner at stoichiometric levels by PKC”.
